Reference: article PMC5148612, “Mechanism of cargo-directed Atg8 conjugation during selective autophagy” (eLife, 2016)
Numbering of substitutions follows the chain as printed. In names and notes the source's numbering stands.

T1: Atg5-mCherry-Atg16 (1–46) complex (S. cerevisiae, UniProt Q12380 1-294; Q03818 1-46)
T1 construct: Atg5, S. cerevisiae; Atg16, S. cerevisiae, first 46 amino acids; a TEV site follows the His tag of Atg5; no cleavage is described; source: E. coli Rosetta pLysS, co-expressed, purified (Ni-NTA, Superdex 200); not shown: mCherry, C-terminal, kept
T1 sequence (looked up) 1: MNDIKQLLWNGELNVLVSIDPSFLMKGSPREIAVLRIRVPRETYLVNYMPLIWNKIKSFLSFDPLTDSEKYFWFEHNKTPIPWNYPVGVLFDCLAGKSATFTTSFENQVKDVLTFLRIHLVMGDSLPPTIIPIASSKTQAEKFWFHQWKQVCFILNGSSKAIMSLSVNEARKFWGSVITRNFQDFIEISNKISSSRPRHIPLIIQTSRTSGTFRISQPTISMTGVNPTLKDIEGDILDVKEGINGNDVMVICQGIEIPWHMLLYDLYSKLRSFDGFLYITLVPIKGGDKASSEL
T1 sequence (looked up) 2: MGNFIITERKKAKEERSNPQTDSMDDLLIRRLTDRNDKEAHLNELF

T2: GFP-Atg8∆R117 (S. cerevisiae, UniProt P38182 1-116)
T2 construct: Atg8, S. cerevisiae, without its last residue R117; also called meGFP-Atg8∆R117; 6xHis-meGFP-Atg8∆R117; source: E. coli Rosetta pLysS, purified; not shown: meGFP, N-terminal, kept
T2 sequence (looked up): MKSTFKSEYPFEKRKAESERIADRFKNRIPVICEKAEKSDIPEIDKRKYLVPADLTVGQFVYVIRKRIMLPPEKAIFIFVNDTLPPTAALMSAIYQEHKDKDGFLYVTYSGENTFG

T3: Atg5-Atg16 complex (S. cerevisiae, UniProt Q12380 1-294; Q03818 1-150)
T3 construct: Atg5, S. cerevisiae; Atg16, S. cerevisiae; source: E. coli Rosetta pLysS; Atg5 cleaved from GST mixed 1:1 with purified Atg16, purified by size exclusion chromatography; not shown: GST, N-terminal, cleaved
T3 sequence (looked up) 1: T1 sequence (looked up) 1
T3 sequence (looked up) 2: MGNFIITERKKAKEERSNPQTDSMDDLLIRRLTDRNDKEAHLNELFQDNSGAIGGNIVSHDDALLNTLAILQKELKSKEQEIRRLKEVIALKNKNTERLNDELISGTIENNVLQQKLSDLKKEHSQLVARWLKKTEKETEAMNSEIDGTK

T4: GST-Atg19 (S. cerevisiae, UniProt P35193 1-415)
T4 construct: Atg19, S. cerevisiae cargo receptor; also called full length GST-Atg19; Atg19 full length; source: E. coli Rosetta pLysS, purified; not shown: GST, N-terminal, kept
T4 sequence (looked up): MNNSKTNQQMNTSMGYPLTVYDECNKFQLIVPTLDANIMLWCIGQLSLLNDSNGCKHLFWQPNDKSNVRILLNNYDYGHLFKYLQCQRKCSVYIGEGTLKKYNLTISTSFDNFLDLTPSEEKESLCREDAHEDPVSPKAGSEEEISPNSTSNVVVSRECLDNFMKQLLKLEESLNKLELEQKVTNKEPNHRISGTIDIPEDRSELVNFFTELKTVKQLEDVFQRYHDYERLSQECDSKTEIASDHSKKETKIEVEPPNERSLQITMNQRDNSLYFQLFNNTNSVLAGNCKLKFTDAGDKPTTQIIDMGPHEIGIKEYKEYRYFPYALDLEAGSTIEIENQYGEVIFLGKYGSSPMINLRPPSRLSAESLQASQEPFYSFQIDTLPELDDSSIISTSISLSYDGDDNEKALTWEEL

T5: Atg12~Atg5-Atg16 complex (S. cerevisiae, UniProt P38316 1-186; Q12380 1-294; Q03818 1-150, conjugated to Atg5 (Atg12~Atg5 protein conjugate) | conjugated to Atg12)
T5 construct: Atg12, S. cerevisiae; Atg5, S. cerevisiae; Atg16, S. cerevisiae; conjugate made by co-expression with Atg7 and Atg10 (SMC131); details in Romanov et al., 2012; also called E3-like complex; source: E. coli Rosetta pLysS; Atg12~Atg5 conjugate mixed 1:1 with purified Atg16, purified by size exclusion chromatography; not shown: GST, N-terminal, cleaved; copies: + +
T5 sequence (looked up) 1: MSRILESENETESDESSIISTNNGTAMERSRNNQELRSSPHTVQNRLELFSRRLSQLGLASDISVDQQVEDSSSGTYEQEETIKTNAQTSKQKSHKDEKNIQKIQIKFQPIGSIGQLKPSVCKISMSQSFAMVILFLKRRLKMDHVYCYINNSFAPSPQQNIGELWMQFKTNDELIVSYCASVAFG
T5 sequence (looked up) 2: T1 sequence (looked up) 1
T5 sequence (looked up) 3: T3 sequence (looked up) 2

T6: Atg19 (S. cerevisiae, UniProt P35193 1-415)
T6 construct: Atg19, S. cerevisiae; printed without a tag; also called Atg19 wild type
T6 sequence (looked up): T4 sequence (looked up)

T7: Atg12~Atg5 conjugate (S. cerevisiae, UniProt P38316 1-186; Q12380 1-294, conjugated to Atg5 (Atg12~Atg5 protein conjugate) | conjugated to Atg12)
T7 construct: Atg12, S. cerevisiae; Atg5, S. cerevisiae; the two chains are covalently joined; source: E. coli Rosetta pLysS, co-expression of 6xHis-Atg5, Atg12, Atg7 and Atg10, purified
T7 sequence (looked up) 1: T5 sequence (looked up) 1
T7 sequence (looked up) 2: T1 sequence (looked up) 1

T8: Atg5 (S. cerevisiae, UniProt Q12380 1-294)
T8 construct: Atg5, S. cerevisiae; in the co-purification with Atg16 (1–46) the GST was still on the protein while it was held on glutathione beads; also called GST-Atg5; source: E. coli Rosetta pLysS, on glutathione beads, cleaved off with thrombin; not shown: GST, N-terminal, cleaved
T8 sequence (looked up): T1 sequence (looked up) 1

B1: GST-Atg19(365–415) (domain or fragment, S. cerevisiae, UniProt P35193 365-415, looked up)
chain: SAESLQASQEPFYSFQIDTLPELDDSSIISTSISLSYDGDDNEKALTWEEL
notes: Atg19, S. cerevisiae, C-terminal domain; also called Atg19 C-terminal domain; Atg19 CTD (365-415); source: E. coli Rosetta pLysS, purified; not shown: GST, N-terminal, kept
B2: Atg5-Atg16 (1–46) (complex, S. cerevisiae)
chain 1: T1 sequence (looked up) 1
chain 2: T1 sequence (looked up) 2
notes: Atg5, S. cerevisiae; Atg16, S. cerevisiae, first 46 amino acids; the His tag of Atg5 is followed by a TEV site; also called Atg5 stabilized with the N-terminal helix of Atg16; Atg5-Atg16 (1–46) wild type; source: E. coli, co-expressed and purified in complex
B3: Atg5(K137E)-Atg16 (1–46) (complex, S. cerevisiae)
chain 1: T1 sequence (looked up) 1 with K137E
chain 2: T1 sequence (looked up) 2
notes: Atg5, S. cerevisiae; Atg16, S. cerevisiae, first 46 amino acids; source: E. coli, co-expressed and purified in complex
B4: Atg5(R208E)-Atg16 (1–46) (complex, S. cerevisiae)
chain 1: T1 sequence (looked up) 1 with R208E
chain 2: T1 sequence (looked up) 2
notes: as for B3
B5: GST-Atg19(365–407) (domain or fragment, S. cerevisiae, UniProt P35193 365-407, looked up)
chain: SAESLQASQEPFYSFQIDTLPELDDSSIISTSISLSYDGDDNE
notes: Atg19, S. cerevisiae; also called Atg19 C-terminal domain with the canonical AIM motif deleted; source: E. coli Rosetta pLysS, purified; not shown: GST, N-terminal, kept
B6: GST-Atg34 (natural protein, S. cerevisiae, UniProt Q12292 1-412, looked up)
chain: MKIAVETTLFDFFVIDQFKKSTFSAPNTKVDTIKGCINKFIEQFNVYDEQHIFWQPPGKSNVRLLSNANDFGQLGNFLHKKIKCNIFIGEEALRKYDLNICGPYDKFVENSDPSVKKVVNRDDVMLSRKCLNIISEQLSILEKSISKAQNQVLQSSEVEGKKCIILPEDKPELIKFFSKFETSVQLQEVYEGYKVYEKLLQKFGGQKKRMESFLNENTPMSGAEAIKQINISEELKEKGERLTTPNDPLLHVEVSNEDNSLHFILYNKTNIIIPGNCTFEFSSQISEVFSIKMGPHEIGIKGQKELWFFPSLPTPLSNYTMKVVNQDGETILVGKCADSNEITLKSPLASFSTGSFQTGSFHTLQDPTNVFRADALSSPDESSIMSTPFLGETDEVYNSGSTLSRPFTWEEI
notes: Atg34, S. cerevisiae cargo receptor; also called α-mannosidase (Ams1) receptor; source: E. coli Rosetta pLysS, purified; not shown: GST, N-terminal, kept
B7: Atg5-Atg16 (1–46) for analytical size exclusion chromatography (complex, S. cerevisiae)
chain 1: T1 sequence (looked up) 1
chain 2: T1 sequence (looked up) 2
notes: Atg5, S. cerevisiae; Atg16, S. cerevisiae, first 46 amino acids; source: E. coli Rosetta pLySS, co-expressed, purified (glutathione beads, thrombin, Superdex 200); not shown: GST, N-terminal, cleaved
B8: Atg16 (natural protein, S. cerevisiae, UniProt Q03818 1-150, looked up)
chain: T3 sequence (looked up) 2
notes: Atg16, S. cerevisiae; also called purified Atg16; GST-Atg16; source: E. coli Rosetta pLysS, purified
B9: Atg16-meGFP (natural protein, S. cerevisiae, UniProt Q03818 1-150, looked up)
chain: T3 sequence (looked up) 2
notes: Atg16, S. cerevisiae; source: E. coli Rosetta pLysS, purified; not shown: meGFP, C-terminal, kept

Columns and labels:
Conditions in all cases: both partners purified
[1] = target: T1, Atg5-mCherry-Atg16 (1–46) complex; assay: microscopy-based protein-protein interaction assay on beads; glutathione beads coated with GST-fused proteins at 30 µM, Atg5-mCherry-Atg16 (1–46) 18 µM, equilibrium (Figure 3B, C)
GFP-Atg8∆R117 = target: T2, GFP-Atg8∆R117; assay: microscopy-based competition assay on beads; beads coated with GST-Atg19(365–415) at 30 µM, Atg5-mCherry-Atg16 (1–46) 18 µM; then GFP-Atg8∆R117 18 µM (1x), then Atg8 400 µM (22x); 25 mM HEPES pH 7.5, 150 mM NaCl, 1 mM DTT (Figure 3E, F)
Atg5-Atg16 complex = target: T3, Atg5-Atg16 complex; assay: pull-down; GST-fused bait 20 µM and GST-free prey 5 µM with glutathione Sepharose 4B, 1 hr at 4°C; washed with 25 mM HEPES pH 7.5, 150 mM NaCl, 1 mM DTT; anti-Atg5 Western blot (Figure 2E, Figure 3—figure supplement 1, Figure 4C)
Atg5-Atg16 (1–46) = target: B2; assay: as above
GST-Atg19 [2] = target: T4, GST-Atg19; assay: pull-down; GST-fused bait 5 µM and GST-free prey 5 µM with glutathione Sepharose 4B, 1 hr at 4°C; washed with 25 mM HEPES pH 7.5, 150 mM NaCl, 1 mM DTT and 0.1% TritonX100; Western blot (Figures 1A, 1C, 2A, 2C)
GST-Atg19 [3] = target: T4, GST-Atg19; assay: pull-down; GST-fused bait 20 µM and GST-free prey 5 µM with glutathione Sepharose 4B, 1 hr at 4°C; washed with 25 mM HEPES pH 7.5, 150 mM NaCl, 1 mM DTT; anti-Atg5 Western blot (Figure 2E, Figure 3—figure supplement 1, Figure 4C)
Atg12~Atg5-Atg16 complex = target: T5, Atg12~Atg5-Atg16 complex; assay: pull-down; GST-fused bait 5 µM and GST-free prey 5 µM with glutathione Sepharose 4B, 1 hr at 4°C; washed with 25 mM HEPES pH 7.5, 150 mM NaCl, 1 mM DTT and 0.1% TritonX100; Western blot (Figures 1A, 1C, 2A, 2C)
Atg19 = target: T6, Atg19; assay: SEC; Atg19 and Atg5-Atg16 (1–46) premixed at 55 µM, concentrated to 580 µM, Superose 6 PC 3.2/30, 25 mM HEPES pH 7.5, 150 mM NaCl, 1 mM DTT; fractions on Coomassie gels
Atg12~Atg5 conjugate = target: T7, Atg12~Atg5 conjugate; assay: SEC; separately purified proteins mixed in a molar ratio 1:1 for 30 min at 4°C or on ice; the resulting complex purified on Superdex S200 16/60
Atg5 = target: T8, Atg5; assay: as above

Binder: B1
- binding result [1]: binds
- binding result (GFP-Atg8∆R117): binds
- binding result (Atg5-Atg16 complex): binds
- binding result (Atg5-Atg16 (1–46)): binds

Binder: B2
- binding result (GST-Atg19 [2]): binds

Binder: B3
- binding result (GST-Atg19 [3]): binds

Binder: B4
- binding result (GST-Atg19 [3]): binds

Binder: B5
- binding result [1]: binds
- binding result (Atg5-Atg16 (1–46)): binds

Binder: B6
- binding result (Atg12~Atg5-Atg16 complex): binds

Binder: B7
- binding result (Atg19): binds

Binder: B8
- binding result (Atg12~Atg5 conjugate): binds
- binding result (Atg5): binds

Binder: B9
- binding result (Atg5): binds
